T1: synthetic non-modified human Hepcidin-25 (human, not fully specified)
T1 construct: also called hHepcidin-25; non-biotinylated human hepcidin
T1 peptide: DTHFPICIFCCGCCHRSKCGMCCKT

T2: C-terminal biotinylated human Hepcidin-25 (human, not fully specified; biotinylated via a Lysine residue coupled to the C-terminus via a Mini-PEG linker)
T2 construct: Bought from Bachem AG; Captured on plates via Neutravidin; also called C-terminal biotinylated hepcidin; C-terminal biotinylated hHepcidin
T2 peptide: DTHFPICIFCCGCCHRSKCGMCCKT

T3: cynomolgus Hepcidin-25 (cynomolgus, UniProt A7XEI3 60-84, not fully specified)
T3 construct: mature
T3 peptide: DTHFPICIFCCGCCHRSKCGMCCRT

B1: lipocalin mutein of SEQ ID NO: 4 (designed binder)
chain: QDSTSDLIPAPPLSKVPLQQNFQDNQFHGKWYVVGVAGNEMLREDKDPLKMLATIYELKEDKSYNVTRVMFEYKKCVYLIETFVPGSQPGEFTLGTIKSVPGLTSGLVRVVSTNYNQHAMVFFKRVWQNREVFWITLYGRTKELTSELKENFIRFSKSLGLPENHIVFPVPIDQCIDG
notes: also called Lcn2 mutein
B2: lipocalin mutein of SEQ ID NO: 6 (designed binder)
chain: QDSTSDLIPAPPLSKVPLQQNFQDNQFHGKWYVVGLAGNEILREDKDPLKMWATIYELKEDKSYNVTRVQFGEKKCGYGIETFVPGSQPGEFTLGSIKSVPGGTSRLVRVVSTNYNQHAMVFFKFVWQNREVFWITLYGRTKELTSELKENFIRFSKSLGLPENHIVFPVPIDQCIDG
notes: also called Lcn2 mutein
B3: lipocalin mutein of SEQ ID NO: 7 (designed binder)
chain: QDSTSDLIPAPPLSKVPLQQNFQDNQFHGKWYVVGLAGNRVLREDKDPQKMFATIYELKEDKSYNVTGVDFRTKKCLYSIGTFVPGSQPGEFTLGVIKSQPGWTSYLVRVVSTNYNQHAMVFFKTVWQNREVFWITLYGRTKELTSELKENFIRFSKSLGLPENHIVFPVPIDQCIDG
notes: also called Lcn2 mutein
B4: lipocalin mutein of SEQ ID NO: 10 (designed binder)
chain: QDSTSDLIPAPPLSKVPLQQNFQDNQFHGKWYVVGLAGNEILREDKDPMKMWATIYELKEDRSYNVTIVMFLAKKCEYLFQTFVPGSQPGEFTLGDIKSSPGRTSGLVRVVSTNYNQHAMVFFKVVWQNREVFWITLYGRTKELTPELKENFIRFSKSLGLPENHIVFPVPIDQCIDGF
notes: also called Lcn2 mutein
B5: lipocalin mutein of SEQ ID NO: 5 (designed binder)
chain: QDSTSDLIPAPPLSKVPLQQNFQDNQFHGKWYVVGAAGNSLLREDKDPMKMWATIYELKEDKSYNVTRVNFGGKKCSYLIETFVPGSQPGEFTLGSIKSRPGATSVLVRVVSTNYNQHAMVFFKLVTQNREVFWITLYGRTKELTSELKENFIRFSKSLGLPENHIVFPVPIDQCIDG
notes: also called Lcn2 mutein
B6: lipocalin mutein of SEQ ID NO: 3 (designed binder)
chain: QDSTSDLIPAPPLSKVPLQQNFQDNQFHGKWYVVGVAGNGLLREDKDPLKMHATIYELKEDKSYNVTRVLFVRKKCRYYISTFVPGSQPGEFTLGRIKSEPGRTSFLVRVVSTNYNQHAMVFFKMVWQNREVFWITLYGRTKELTSELKENFIRFSKSLGLPENHIVFPVPIDQCIDG
notes: also called Lcn2 mutein
B7: lipocalin mutein of SEQ ID NO: 9 (designed binder)
chain: QDSTSDLIPAPPLSKVPLQQNFQDNQFHGKWYVVGLAGNEVLREDKDPMKMWATIYELKEDKSYNVTIVMSLAKKCEYLFQTFVPGSQPGEFTLGDIKSSPGRTSGLVRVVSTNYNQHAMVFFKVVWQNREVFWITLYGRTKELTSGLKENFIRFSKSLGLPENHIVFPVPIDQCIDG
notes: also called Lcn2 mutein
B8: lipocalin mutein of SEQ ID NO: 12 (designed binder)
chain: B7 chain with S71F, K74E, K75E, G147E, E150K
notes: also called Lcn2 mutein
B9: lipocalin mutein of SEQ ID NO: 11 (designed binder)
chain: B7 chain with V41I, S71F
notes: also called Lcn2 mutein
B10: lipocalin mutein of SEQ ID NO: 14, linked to PEG40 (designed binder)
chain: B7 chain with K59E, S71F, S87C, V125T, G147E
modifications: branched 40k PEG-maleimide on the free Cys at position 87
notes: hNGAL mutein with Ser 87 back-mutated to Cys and PEGylated there
B11: lipocalin mutein of SEQ ID NO: 1, linked to albumine-binding domain (ABD) (SEQ ID NO: 15) (designed binder)
chain: QDSTSDLIPAPPLSKVPLQQNFQDNQFHGKWYVVGLAGNEVLREDKDPMKMWATIYELEEDKSYNVTIVMFLAKKCEYLFQTFVPGSQPGEFTLGDIKSSPGRTSGLVRVVSTNYNQHAMVFFKVVWQNREVFWITLYGRTKELTSELKENFIRFSKSLGLPENHIVFPVPIDQCIDGSAGAVDANSLAEAKVLANRELDKYGVSDYYKNLINNAKTVEGVKALIDEILAALPSAWSHPQFEK
notes: also called ABD-fusion protein
B12: lipocalin mutein of SEQ ID NO: 2 (designed binder)
chain: QDSTSDLIPAPPLSKVPLQQNFQDNQFHGKWYVVGTAGNSILREDKDPQKMWATIYELKEDKSYNVTRVFFEGKKCRYVIETFVPGSQPGEFTLGKIKSAPGGTSILVRVVSTNYNQHAMVFFKVVWQNRELFWITLYGRTKELTSELKENFIRFSKSLGLPENHIVFPVPIDQCIDG
notes: also called Lcn2 mutein

Positions count from the first letter of the chain named.

In the first test the target is T1, synthetic non-modified human Hepcidin-25. Description: competition ELISA: non-biotinylated human hepcidin-25 titrated against a constant concentration of mutein; free mutein detected on plate-captured biotinylated human hepcidin. As for the experimental part:
The binding affinity of the Lcn2 muteins to non-modified hepcidin-25 in solution was evaluated in a competition ELISA approach. Therefore, a constant concentration of 1 μg/ml C-terminal biotinylated human hepcidin (Bachem AG, CH) was captured on the surface of a polystyrol plate (Greiner, GE) via Neutravidin (Thermo Scientific, 5 μg/ml, GE). In parallel a two step dilution series of non-biotinylated human hepcidin starting from 1 μM was incubated with a constant concentration of hepcidin-specific mutein for 1 h at room temperature in a non-protein binding 96 well polypropylene plate (Nunc, GE). The constant concentration of lipocalin muteins corresponds to the EC₅₀ of the respective muteins as determined in a direct ELISA as described above in this example. In the following the mixture of non-modified human hepcidin and lipocalin mutein was transferred onto the hepcidin-captured Neutravidin plate. The C-terminal biotinylated hepcidin was allowed to compete with the non-modified hepcidin for Anticalin binding for 20 min. at room temperature. During these 20 min, free lipcocalin mutein was bound to the captured hepcidin and detected via a rabbit anti-strep-tag II polyconal antibody (GenScript, USA). A goat anti-rabbit IgG-HRP conjugate (Abcam, UK) was employed as secondary detection antibody. Parallel to the competition assay, anticalin binding was determined on the same plate in a “direct” ELISA, in order to obtain a standard curve linking the RFU values to anticalin concentration. This curve was then used to standardize competition data to the level of anticalins bounds to the plate and fitted with Graphpad software. IC₅₀ values correspond to the half-maximum amount of lipocalin mutein bound to the plate.
(An ELISA detects its analyte on a solid surface through an enzyme-linked reagent.)
B1: the concentration for half-maximal inhibition (IC50) (in general, the point on the concentration scale where inhibition reaches its midpoint) was 0.6 nM.

B2 showed an IC50 of 1.7 nM.

On to B3, for which the IC50 was found to be 1.3 nM.

B4 returned a half-inhibitory concentration (IC50) of 0.18 nM.

Regarding B5, the IC50 is 10.8 nM.

B6: the IC50 amounted to 0.38 nM.

For the molecule B7, the IC50 amounted to 0.12 nM.

In the case of B8, the IC50 was found to be 0.17 nM.

B9 had an IC50 of 0.11 nM.

For the molecule B10, the IC50 was determined as 1.17 nM.

Molecule B11 came in with an IC50 of 0.37 nM.

As to B12, the IC50 is 9 nM.

A further test addresses T2, C-terminal biotinylated human …. Description: direct ELISA, biotinylated hepcidin captured via Neutravidin, mutein titrated. On the procedure:
(§1) A “direct” ELISA was performed to verify the binding affinity and specificity of the selected Lcn2 muteins. Therefore, a constant concentration of 1 μg/ml C-terminal biotinylated hepcidin (Bachem AG, CH) was captured on the surface of a polystyrol plate (Greiner, GE) via Neutravidin (Thermo Scientific, 5 μg/ml). Two step dilution series of purified Lcn2 muteins were incubated with the captured hepcidin for 1 h at room temperature and detected either via the Strep-tag II using a rabbit anti-strep-tag II polyconal antibody (GenScript, USA) or by using a scaffold-specific polyclonal rabbit antibody. In both cases an anti rabbit IgG-HRP conjugate (Abcam, UK) was employed as secondary detection antibody.
(§2) The absorption ΔA at […] was measured in an ELISA reader (Tecan, GE) and the data were fitted with Graphpad Prism software (Statcom, USA).
Turning to B1, the Kd (commonly the free concentration of one partner at which half of the binding sites on the other are occupied at equilibrium, for simple one-to-one binding) was found to be 1.39 nM.

In turn, B2 showed a dissociation constant (Kd) of 0.76 nM.

In the case of B3, the Kd is 0.48 nM.

For the molecule B4, the Kd is 0.75 nM.

In the case of B5, binding was characterised by a dissociation constant (Kd) of 4.13 nM.

B6 had a Kd of 0.84 nM.

Molecule B7 registered a Kd of 0.75 nM.

As for B8, the Kd stood at 0.64 nM.

For B9, the Kd amounted to 0.64 nM.

B10 yielded a Kd of 2.18 nM.

As for B11, binding was put at a Kd of 0.48 nM.

On to B12, for which binding was put at a Kd of 2.12 nM.

Another test concerns the target T3, cynomolgus Hepcidin-25. In words: direct ELISA on cynomolgus hep-25, mutein titrated. As for the experimental part:
as §1, §2
Consider B1, for which the Kd came to 2.03 nM.

B2 gave a Kd of 0.79 nM.

B3: the dissociation constant Kd is 0.22 nM.

For the molecule B4, the affinity, expressed as Kd, was 0.82 nM.

In the case of B5, the Kd came out at 6.83 nM.

B6: binding was put at a Kd of 0.59 nM.

The molecule B7 displayed an equilibrium dissociation constant (Kd) of 1.14 nM.

Take B8: the Kd stood at 0.96 nM.

As to B9, the affinity, expressed as Kd, was 0.61 nM.

In turn, B10 yielded a Kd of 1.36 nM.

The molecule B11 displayed a dissociation constant Kd of 0.22 nM.

Take B12: binding was put at a Kd of 3.15 nM.

The next test has as its target T1, synthetic non-modified human Hepcidin-25. In words: cell-based or functional assay.
For the molecule B1, the “IC50 of neutralization of hepcidin-induced (40 nM) internalization and degradation of FPN-GFP in T-REx-293 cells, GFP fluorescence by flow cytometry” value (shortened to “IC50 of neutralization … by flow cytometry”) stood at 62 nM.

As for B2, the “IC50 of neutralization … by flow cytometry” value amounted to 65 nM.

Turning to B3, the “IC50 of neutralization … by flow cytometry” value came out at 79 nM.

Regarding B4, the “IC50 of neutralization … by flow cytometry” value is 25 nM.

Take B9: the “IC50 of neutralization … by flow cytometry” value came to 31 nM.

For B10, the “IC50 of neutralization … by flow cytometry” value was 25 nM.

As for B11, the “IC50 of neutralization … by flow cytometry” value is 39 nM.

In the case of B12, the “IC50 of neutralization … by flow cytometry” value was determined as 62 nM.

(Values after patent US20170369542A1 (Pieris, published 2017).)
